# In publication PMC9253517 (The Journal of Experimental Medicine, 2022):
# B1: JN021 (antibody, V domains shown)
# VH: QLQLQESGPGLVKPSETLSLTCTVSGGSIRSRGYYWGWIRQPPGKGLEWIGSIDYSGSTYYNPSLKSRVTISVDTSKNQFSLKLNSVTAADTAVFYCASSADTYYDILTGYYKGWYIDYWGQGTLVTVSS
# VL: LTQPRSVSGSPGQSVTISCAGTSSDVGGYNYVSWYQQHPGKAPKLMIFDVTKRPSGVPDRFSGSKSGNTASLTISGLQAEDDADYYCCSYAGSYTYWVFGGGTKLTVL
# B2: JN020 (antibody, V domains shown)
# VH: EVQLVESGGDLVRRGESLRLSCAASGFTFSNHWMTWVRQAPGRGLEWVANIEGDGSDKYYVDSVKGRFTISRDNARNLLFLYMNALRGDDTAIYYCARHSATYHGLDQWGQGTLVTVSS
# VL: LTQPRSVSGSPGQSVTISCTGTSSDVGGYIFVSWYQRHPGKAPKLILFHVDKRPSGVPDRFSGSRSGNTASLTISGLQTEDEADYDCYSFAGTIWMFGGGTRLTVL
# B3: JN231 (antibody, V domains shown)
# VH: VQLVESGGGVVQPGRSLRLSCAASGFTFSSYGMHWVRQAPGKGLEWVAVISYDGSNKYYADSVKGRFTISRDNSKNTLYLQMNSLRAEDTAVYYCAKDSRYYDFWSGYLGPDEYYYYYYMDVWGKGTTVTVSS
# VL: not shown
# B4: JN019 (antibody, V domains shown)
# VH: VQLVESGGGVVQPGRSLRLSCAASGFTFSNYGMHWVRQAPGKGLEWVAFISYDANHKYSTNSVKGRFTISRDNSKNTLYLQMNSLRTEDTAVYYCASMDGLHPGTAQFYGMDVWGQGTTVTVSS
# VL: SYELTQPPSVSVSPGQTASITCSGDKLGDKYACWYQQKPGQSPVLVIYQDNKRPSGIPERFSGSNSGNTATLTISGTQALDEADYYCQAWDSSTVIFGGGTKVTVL
# B5: JN220 (antibody, V domains shown)
# VH: VQLVESGGGVVQPGRSLRLSCAASGFTFSSYTMHWVRQAPGKGLEWVAVISYDGSNKYYADSVKGRFTISRDNSKNTLYLQMNSLRAEDTAVYYCAISSGWYSMSGAFDIWGQGTMVTVSS
# VL: QSALTQPRSVSGSPGQSVTISCTGTSSDVGGYNYVSWYQQHPGKAPKLMIYDVSKRPSGVPDRFSGSKSGNTASLTISGLQAEDEADYYCCSYAGSYRVFGTGTKVTVL
# B6: JN011 (antibody, V domains shown)
# VH: VQLVESGGGVVQPGRSLRLSCAASGFTFSSYAMHWVRQAPGKGLEWVAVISYDGSNKYYADSVKGRFTISRDNSKNTLYLQMNSLRAEDTAVYYCAGSLGEEYYYYYYGMDVWGQGTTVTVSS
# VL: NFMLTQPHSVSESPGKTVTISCTGSSGSIASNYVQWYQQRPGSAPTTVIYEDNQRPSGVPDRFSGSIDSSSNSASLTISGLKTEDEADYYCQSYDSSNWVFGGGTKLTVL
# B7: JN006 (antibody, V domains shown)
# VH: VQLVESGGGVVQPGRSLRLSCAASGFTFSNYVMHWVRQAPGKGLEWVAVMSSDGSIKYYADSVKGRFTVSRDNSKNTLYLQMNSLRPEDTAVYYCARGGRYSGSHTGDAFDIWGQGTMVTVSS
# VL: SYELTQPPSVSVSPGQTARITCSGDALPNRYSYWYQQKPGQAPVLVIFKDSERPSGIPERFSGSSSGTTVTLTISGVQAEDEADYYCQSADSSGTWVFGGGTKLTVL
# B8: JN112 (antibody, V domains shown)
# VH: QVQLQESGPGLVKPSQTLSLTCTVSGGSISSGDYYWSWIRQPPGKGLEWIGYIYYSGSTYYNPSLKSRVTISVDTSKNQFSLKLSSVTAADTAVYYCAREGTIFGEPFDYWGQGTLVT
# VL: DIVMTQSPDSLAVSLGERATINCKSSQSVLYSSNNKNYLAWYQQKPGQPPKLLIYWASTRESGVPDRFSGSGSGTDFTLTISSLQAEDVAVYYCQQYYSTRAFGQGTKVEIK
# B9: JN024 (antibody, V domains shown)
# VH: QVQLQESGPKLMKPSQTLSLTCAVSGASIRSGGYYWSWIRQHPGKGLEWIGYIYYSGSTYYNPSLKSRATISVDTSKNQFSLKLTSVTAADTAVYYCARAGRWFGELFRGGGYFDYWGLGTLVTVSS
# VL: AIRMTQSPSSLSASVGDRVTITCQASQDIGIFLNWYQQKSGEAPKLLIYDASNLETGVPSRFSGSGSGTDFIFIIRNLQPEDSATYYCQQHNHLPRVTFGPGTKVDIK
# B10: JN111 (antibody, V domains shown)
# VH: QVQLQESGPGLVRPSETLSLTCTVSGASITSYFWTWIRQAPGKGLEWIGYIYYSGSTNYNPSLKSRGTISVDTSKNQFSLKLSSVTAADTAVYYCARGMSDVVIVPAALSFGYDDAYYYYYYMDVWGKGTTVTVSS
# VL: QSALTQPASVSGSLGQSITISCTGTSSDVGSYNLVSWYQQHPGKVPKLMIYEANKRASGVSDRFSGSKTDNTASLTISGLQAEDEADYYCCSYAGSRTHVIFGGGTKLTV
# Biological target: SARS-CoV-2 Wuhan-Hu-1 NTD (SARS-CoV-2, UniProt P0DTC2)
# Assay: cell-based or functional assay
row,Binder,"neutralisation IC50, WT (293TAce2) [µg/mL]"
1,B1,> 1
2,B2,> 1
3,B3,> 1
4,B4,0.0345
5,B5,> 1
6,B6,> 1
7,B7,> 1
8,B8,> 1
9,B9,> 1
10,B10,> 1
